Measurements from patent US8629107B2, “Genes and proteins associated with angiogenesis and uses thereof” (National Jewish Health, priority 2005, dated 2014).

Molecular target: T1, Notch1 (Mus musculus, UniProt Q01705)
T1 construct: expressed in transfected cells; host or cells: human kidney 293T cells, transient transfection (LT-1 liposomes)
Assay: Notch1 processing assay in human kidney 293T cells
Format: cell-based
Conditions: 293T cells co-transfected with Notch1, vs cells solely expressing Notch1; anti-Myc immunoblot
Procedure: To monitor the effects of MAGP-2 on the processing and S3 cleavage of Notch1, human kidney 293T cells were transiently transfected in 6-well plates with LT-1 liposomes containing 0.5 μg/well of Notch1 (pCS2+mN1FL6MT), 0.5 μg/well Jagged-1 (pCS2+Jag1-6MT), or 1.5 μg/well of MAGP-2 (pcDNA3.1-MAGP-2/Myc-His) in all combinations. Forty-eight h post-transfection, the cells were washed with ice-cold PBS, lysed immediately in Buffer H/1% Triton X-100 [500 μl/well; (Schiemann et al, 2002)], and incubated on ice for 30 min. Afterward, insoluble material was removed by microcentrifugation and 100 μl of the resulting clarified extract was fractionated through 6% SDS-PAGE gels. The fractionated proteins were transferred electrophoretically to nitrocellulose and probed with anti-Myc 9E10 monoclonal antibodies (Covance, Princeton, N.J.) to visual Notch1 cleavage species.
Activation of Notch1 signaling involves three proteolytic processing events, termed S1, S2, and S3, that produce three distinct Notch1 fragments, termed TMIC, NEXT, and NICD, respectively (Mumm et al, 2000). […] The inventors tested this possibility by transiently transfecting human 293T cells with cDNAs encoding Myc-tagged versions of Notch1, Jagged-1, and MAGP-2 in all combinations, and subsequently monitored changes in NICD production and accumulation by immunoblot analyses using anti-Myc monoclonal antibodies. […]

T1 sequence (Q01705 19-2531): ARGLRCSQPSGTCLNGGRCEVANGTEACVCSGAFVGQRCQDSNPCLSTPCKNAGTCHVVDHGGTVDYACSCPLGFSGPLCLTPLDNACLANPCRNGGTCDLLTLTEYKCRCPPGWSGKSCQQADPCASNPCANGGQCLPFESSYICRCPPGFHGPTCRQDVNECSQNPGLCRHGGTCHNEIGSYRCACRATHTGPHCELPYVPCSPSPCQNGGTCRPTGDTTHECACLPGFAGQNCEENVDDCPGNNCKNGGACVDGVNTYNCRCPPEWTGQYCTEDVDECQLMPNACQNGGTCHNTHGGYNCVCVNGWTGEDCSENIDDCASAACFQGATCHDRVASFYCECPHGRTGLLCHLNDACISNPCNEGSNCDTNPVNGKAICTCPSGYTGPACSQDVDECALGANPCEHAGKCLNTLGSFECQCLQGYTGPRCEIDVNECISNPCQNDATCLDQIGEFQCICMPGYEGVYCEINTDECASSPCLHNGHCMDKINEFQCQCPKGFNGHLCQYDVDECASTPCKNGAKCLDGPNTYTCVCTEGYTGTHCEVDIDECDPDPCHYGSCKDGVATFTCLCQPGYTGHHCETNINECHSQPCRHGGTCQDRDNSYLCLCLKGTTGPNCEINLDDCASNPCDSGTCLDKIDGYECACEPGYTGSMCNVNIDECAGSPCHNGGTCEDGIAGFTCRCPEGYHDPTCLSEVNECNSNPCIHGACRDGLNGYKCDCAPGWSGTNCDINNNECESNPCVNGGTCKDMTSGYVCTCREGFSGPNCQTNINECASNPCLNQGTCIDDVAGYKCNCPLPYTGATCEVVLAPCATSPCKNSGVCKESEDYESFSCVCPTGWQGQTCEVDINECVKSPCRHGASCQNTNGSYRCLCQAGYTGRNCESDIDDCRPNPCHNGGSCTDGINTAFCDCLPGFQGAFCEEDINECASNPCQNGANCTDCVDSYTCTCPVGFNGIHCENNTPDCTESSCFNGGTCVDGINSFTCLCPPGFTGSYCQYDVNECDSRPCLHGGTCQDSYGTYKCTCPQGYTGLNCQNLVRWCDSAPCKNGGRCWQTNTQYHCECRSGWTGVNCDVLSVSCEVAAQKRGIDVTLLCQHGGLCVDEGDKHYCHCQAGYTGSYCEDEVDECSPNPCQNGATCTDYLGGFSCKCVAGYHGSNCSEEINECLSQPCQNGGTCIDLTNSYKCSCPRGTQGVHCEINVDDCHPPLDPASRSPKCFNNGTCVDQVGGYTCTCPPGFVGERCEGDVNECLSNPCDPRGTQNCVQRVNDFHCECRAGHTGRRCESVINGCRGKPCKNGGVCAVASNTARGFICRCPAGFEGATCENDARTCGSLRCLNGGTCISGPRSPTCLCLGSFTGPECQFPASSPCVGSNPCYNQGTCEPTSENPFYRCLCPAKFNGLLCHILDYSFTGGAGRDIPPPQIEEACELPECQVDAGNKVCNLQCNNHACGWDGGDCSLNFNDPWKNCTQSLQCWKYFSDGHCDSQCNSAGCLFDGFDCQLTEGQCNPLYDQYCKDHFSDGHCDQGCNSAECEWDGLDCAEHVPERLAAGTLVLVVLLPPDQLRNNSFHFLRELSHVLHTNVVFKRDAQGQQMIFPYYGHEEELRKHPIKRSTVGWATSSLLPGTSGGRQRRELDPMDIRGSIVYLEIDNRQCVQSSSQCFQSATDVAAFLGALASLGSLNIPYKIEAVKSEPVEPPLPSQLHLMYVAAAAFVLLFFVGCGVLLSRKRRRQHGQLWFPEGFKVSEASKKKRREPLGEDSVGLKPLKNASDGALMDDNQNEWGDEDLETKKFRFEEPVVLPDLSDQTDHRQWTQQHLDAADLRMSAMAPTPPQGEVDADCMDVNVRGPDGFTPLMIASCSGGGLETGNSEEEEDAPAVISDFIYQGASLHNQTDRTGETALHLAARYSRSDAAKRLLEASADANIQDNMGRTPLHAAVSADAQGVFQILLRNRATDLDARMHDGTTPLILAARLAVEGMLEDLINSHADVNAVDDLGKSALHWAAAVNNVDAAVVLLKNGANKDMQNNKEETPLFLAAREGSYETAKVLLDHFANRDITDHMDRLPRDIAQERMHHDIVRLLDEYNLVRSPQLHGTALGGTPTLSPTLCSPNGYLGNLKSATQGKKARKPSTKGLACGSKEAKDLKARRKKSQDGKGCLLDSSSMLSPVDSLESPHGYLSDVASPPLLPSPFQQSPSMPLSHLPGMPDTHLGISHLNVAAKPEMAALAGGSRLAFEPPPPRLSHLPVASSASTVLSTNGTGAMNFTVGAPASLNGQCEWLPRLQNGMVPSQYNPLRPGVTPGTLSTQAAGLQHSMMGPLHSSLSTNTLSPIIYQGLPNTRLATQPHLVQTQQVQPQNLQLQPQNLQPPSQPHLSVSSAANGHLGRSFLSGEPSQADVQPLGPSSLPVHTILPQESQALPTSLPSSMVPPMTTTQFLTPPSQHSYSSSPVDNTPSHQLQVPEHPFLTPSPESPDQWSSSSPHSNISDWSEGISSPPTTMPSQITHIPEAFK

Notch1 processing and production of NICD: significantly enhanced
B1: Jagged-1: Notch1 ligand; Myc-tagged murine Jagged-1 cDNA transiently transfected (protein)
chain: QFELEILSMQNVNGELQNGNCCGGVRNPGDRKCTRDECDTYFKVCLKEYQSRVTAGGPCSFGSGSTPVIGGNTFNLKASRGNDRNRIVLPFSFAWPRSYTLLVEAWDSSNDTIQPDSIIEKASHSGMINPSRQWQTLKQNTGIAHFEYQIRVTCDDHYYGFGCNKFCRPRDDFFGHYACDQNGNKTCMEGWMGPDCNKAICRQGCSPKHGSCKLPGDCRCQYGWQGLYCDKCIPHPGCVHGTCNEPWQCLCETNWGGQLCDKDLNYCGTHQPCLNRGTCSNTGPDKYQCSCPEGYSGPNCEIAEHACLSDPCHNRGSCKETSSGFECECSPGWTGPTCSTNIDDCSPNNCSHGGTCQDLVNGFKCVCPPQWTGKTCQLDANECEAKPCVNARSCKNLIASYYCDCLPGWMGQNCDININDCLGQCQNDASCRDLVNGYRCICPPGYAGDHCERDIDECASNPCLNGGHCQNEINRFQCLCPTGFSGNLCQLDIDYCEPNPCQNGAQCYNRASDYFCKCPEDYEGKNCSHLKDHCRTTTCEVIDSCTVAMASNDTPEGVRYISSNVCGPHGKCKSQSGGKFTCDCNKGFTGTYCHENINDCESNPCKNGGTCIDGVNSYKCICSDGWEGAHCENNINDCSQNPCHYGGTCRDLVNDFYCDCKNGWKGKTCHSRDSQCDEATCNNGGTCYDEVDTFKCMCPGGWEGTTCNIARNSSCLPNPCHNGGTCVVNGDSFTCVCKEGWEGPICTQNTNDCSPHPCYNSGTCVDGDNWYRCECAPGFAGPDCRININECQSSPCAFGATCVDEINGYQCICPPGHSGAKCHEVSGRSCITMGRVILDGAKWDDDCNTCQCLNGRVACSKVWCGPRPCRLHKSHNECPSGQSCIPVLDDQCFVRPCTGVGECRSSSLQPVKTKCTSDSYYQDNCANITFTFNKEMMSPGLTTEHICSELRNLNILKNVSAEYSIYIACEPSLSANNEIHVAISAEDIRDDGNPVKEITDKIIDLVSKRDGNSSLIAAVAEVRVQRRPLKNRTDFLVPLLSSVLTVAWVCCLVTAFYWCVRKRRKPSSHTHSAPEDNTTNNVREQLNQIKNPIEKHGANTVPIKDYENKNSKMSKIRTHNSEVEEDDMDKHQQKVRFAKQPVYTLVDREEKAPSGTPTKHPNWTNKQDNRDLESAQSLNRMEYIV
modifications: left off: small tags and cut ends
notes: Notch1 ligand; Myc-tagged murine Jagged-1 cDNA transiently transfected
